From patent US6846803B1, “Antagonists specific for the corticotropin-releasing factor receptor type 2 (CRFR2)” (priority 1998, dated 2005)
Where two headings read alike, the source gives them in different places. Positions of bridges follow the written chain, without caps; N, C: chain ends. Non-standard residues stand in square brackets, D forms with d. No end group written: not given here. *: point of attachment. ATB = 4-(1-azi-2,2,2-trifluoroethyl)benzoyl, O=C(c1ccc(C2(C(F)(F)F)N=N2)cc1)*

T1: rCRFR1 (Rattus norvegicus, UniProt P35353)
T1 construct: expressed in transfected cells; host or cells: HEK 293 cells, stably transfected (HEK-rCRFR1)
T1 sequence (P35353 24-415): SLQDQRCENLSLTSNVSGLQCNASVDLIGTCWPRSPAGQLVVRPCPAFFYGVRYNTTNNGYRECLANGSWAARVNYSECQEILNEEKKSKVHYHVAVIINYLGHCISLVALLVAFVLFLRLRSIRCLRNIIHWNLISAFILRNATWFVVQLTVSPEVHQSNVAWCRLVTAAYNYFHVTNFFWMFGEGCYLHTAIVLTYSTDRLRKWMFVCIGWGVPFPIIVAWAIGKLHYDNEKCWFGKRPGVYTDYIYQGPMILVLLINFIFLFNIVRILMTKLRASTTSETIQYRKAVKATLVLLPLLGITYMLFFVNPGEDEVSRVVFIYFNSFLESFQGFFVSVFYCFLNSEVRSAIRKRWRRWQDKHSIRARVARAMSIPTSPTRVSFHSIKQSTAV

T2: rat CRF receptor, type 1 (rCRFR1) (rat, UniProt P35353 24-415)
T2 sequence (looked up): T1 sequence (P35353 24-415)


Experiments:
rCRFR1 [1] = target: T1, rCRFR1; assay: Displacement of [^125I-Tyr^0]oCRF from membranes of HEK-rCRFR1 cells; assay type: binding; conditions: membranes of HEK-rCRFR1 cells; read-out: Kd, binding to rCRFR1
Method: (§1) Binding assays were performed in 96-well MultiScreen plates (Millipore, Eschborn, Germany) with GF/B filters (pore size 1.0 μm). […] After incubation (60 min, 23° C.), membrane suspension was aspirated through the plate, followed by two washes with assay buffer (0.2 ml, 23°). Radioactivity of the punched filters was measured with a 1470 WIZARD automatic gamma counter (Berthold, Hannover). […] Statistical analysis was performed with ANOVA, and significant differences between groups were determined by post hoc comparison using the Dunn test.
(§2) Membrane homogenates of human embryonic kidney (HEK) 293 cells stably transfected with cDNA coding for rat CRF receptor, type 1 (rCRFR1) or mouse CRF receptor, type 2β (mCRFR2β) were prepared according to standard protocols (see, e.g., Sambrook et al., Molecular Cloning: A Laboratory Manual, 2nd. Edition, Cold Spring Habor Laboratory Press, Cold Spring Habor, N.Y., 1989; Ausubel et al., Current Protocols in Molecular Biology, Green Publishing Associates and Wiley Interscience, NY, 1989).

mCRFR2β [2] = target: T3, mCRFR2β (Mus musculus, UniProt Q60748); assay: Displacement of [^125I-Tyr^0]Svg from membranes of HEK-mCRFR2β cells; assay type: binding; conditions: for Selectivity: Kd(rCRFR1)(peptide)/Kd(rCRFR1)(astressin) × Kd(mCRFR2β)(astressin)/Kd(mCRFR2β)(peptide)
T3 construct: expressed in transfected cells; host or cells: HEK 293 cells, stably transfected (HEK-mCRFR2β); membrane homogenates
Method: as §1, §2

rCRFR1 [3] = target: T1, rCRFR1; assay: cAMP stimulation / inhibition of oCRF-stimulated cAMP production in HEK-rCRFR1 cells; assay type: cell-based
Method: (§3) HEK-rCRFR1 cells or HEK-mCRFR2β cells were incubated with different CRF agonists in the presence or absence of 1 μM or 10 nM antagonist, or CRF antagonist (c=1 μM) alone. After removal of the medium, cells were lyzed with aqueous 6% trichloroacetic acid (5 min, 100° C.) (Rühmann, A., A. K. E. Köpke, F. M. Dautzenberg, and J. Spiess, Proc. Natl. Acad. Sci. USA 93: 10609-10613, 1996). The cell lysates were stored at −70° C. until assayed with a RIA kit (Amersham, Little Chalfont). […] Statistical significance was determined across groups with ANOVA, and significant differences between groups were determined by post hoc comparison using the Dunn test.
(§4) Intrinsic activities were measured at peptide concentrations generating maximal formation of cAMP in HEK-rCRFR1 or HEK-mCRFR2β cells.

mCRFR2β [4] = target: T3, mCRFR2β; assay: cAMP stimulation / inhibition of Svg-stimulated cAMP production in HEK-mCRFR2β cells; assay type: cell-based; conditions: agonist
Method: as §3, §4
Target sequence in this assay (Q60748 1-431 isoform Q60748-2): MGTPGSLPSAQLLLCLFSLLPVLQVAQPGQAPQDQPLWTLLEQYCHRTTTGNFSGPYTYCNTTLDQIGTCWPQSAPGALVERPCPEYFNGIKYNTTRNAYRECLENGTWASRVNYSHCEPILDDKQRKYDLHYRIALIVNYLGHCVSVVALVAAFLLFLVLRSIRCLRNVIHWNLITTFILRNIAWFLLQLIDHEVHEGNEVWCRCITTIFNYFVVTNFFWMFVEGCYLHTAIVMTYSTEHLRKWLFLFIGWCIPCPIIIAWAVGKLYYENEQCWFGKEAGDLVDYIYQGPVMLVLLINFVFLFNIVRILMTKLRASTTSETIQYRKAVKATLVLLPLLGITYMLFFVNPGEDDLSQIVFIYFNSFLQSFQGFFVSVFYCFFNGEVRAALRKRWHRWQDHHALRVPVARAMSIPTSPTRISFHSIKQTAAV

[5] = target: mouse CRF receptor, type 2β (mCRFR2β) (mouse) (UniProt Q60748); assay: displacement of [125I-Tyr0]Svg from HEK-mCRFR2β membranes
[6] = target: mouse CRF receptor, type 2β (mCRFR2β) (mouse) (UniProt Q60748); assay: Kd(rCRFR1)/Kd(mCRFR2β) of the peptide normalised to that of astressin; radioligand displacement
[7] = target: T2, rat CRF receptor, type 1 (rCRFR1); assay: cell-based or functional assay
[8] = target: T2, rat CRF receptor, type 1 (rCRFR1); assay: cell-based or functional assay; remark: listed apart in the source
[9] = target: T2, rat CRF receptor, type 1 (rCRFR1); assay: displacement of [125I-Tyr0]oCRF from HEK-rCRFR1 membranes
Method: as §1

[10] = target: T2, rat CRF receptor, type 1 (rCRFR1); assay: as above; remark: listed apart in the source
Method: as §1

sauvagine (Svg) (peptide), sequence (peptide): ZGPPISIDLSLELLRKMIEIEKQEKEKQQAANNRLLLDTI

Row | Molecule | Kd [5] | Selectivity [6] | % IA (intrinsic activity), cAMP production, HEK-rCRFR1 cells [7] | rel. IA (relative intrinsic activity), cAMP production, HEK-rCRFR1 cells [8] | rel. pot. (relative potency), inhibition of oCRF-stimulated cAMP production, HEK-rCRFR1 cells [8] | Kd [10] | also measured
1 | CC[C@H](C)[C@H](NC(=O)[C@H](CC(=O)O)NC(=O)[C@H](CC(C)C)NC(=O)[C@H](CC(C)C)NC(=O)[C@H](CCCCN)NC(=O)[C@H](CCCNC(=N)N)NC(=O)[C@H](CC(N)=O)NC(=O)[C@H](CO)NC(=O)[C@H](Cc1c[nH]cn1)NC(=O)[C@H](C)NC(=O)[C@H](CCC(N)=O)NC(=O)[C@H](CCC(N)=O)NC(=O)[C@H](C)NC(=O)[C@H](CC(C)C)NC(=O)[C@H](CCC(N)=O)NC(=O)[C@H](CC(=O)O)NC(=O)[C@H](C)NC(=O)[C@H](CCCCN)NC(=O)[C@@H](NC(=O)[C@H](CCSC)NC(=O)[C@H](CCC(=O)O)NC(=O)[C@H](CC(C)C)NC(=O)[C@@H](NC(=O)[C@H](CCC(=O)O)NC(=O)[C@H](CCCNC(=N)N)NC(=O)[C@H](CC(C)C)NC(=O)[C@H](CC(C)C)NC(=O)[C@H](Cc1c[nH]cn1)NC(=O)[C@H](Cc1ccccc1)NC(=O)[C@@H](NC(=O)[C@H](CC(C)C)NC(=O)[C@H](CC(=O)O)NC(=O)[C@H](CC(C)C)NC(=O)[C@H](CO)NC(=O)[C@@H](NC(=O)[C@@H]1CCCN1C(=O)[C@@H]1CCCN1C(=O)[C@H](CCC(=O)O)NC(=O)[C@H](CCC(N)=O)NC(=O)[C@@H](N)CO)[C@@H](C)CC)[C@@H](C)O)C(C)C)[C@@H](C)O)C(=O)N[C@@H](C)C(N)=O [compound 1, oCRF, reference compound] |  |  |  |  |  |  | Kd (rCRFR1 [1]): 0.6 ± 0.1 nM; Selectivity (mCRFR2β [2]; Table 1): 0.002; Kd (mCRFR2β [2]; Table 1, [^125I-Tyr^0]Svg as competitive ligand, recombinant mCRFR2β, HEK 293 membranes, read-out: Kd(mCRFR2β)): 162 ± 37.6 nM; Selectivity (mCRFR2β [2]; Table 3): 0.002; Emax at 0.001 µM (rCRFR1 [3]; Table 2, 1 μM CRF antagonist alone, cAMP production in HEK-rCRFR1 cells, oCRF (1 nM) = 1.00, read-out: rCRFR1 % IA (intrinsic activity)): 100%; rCRFR1 relative in vitro potency (rCRFR1 [3]; Table 2, 1 μM antagonist, cAMP production stimulated by 1 nM oCRF, oCRF alone = 1.00 (lower = stronger inhibition)): 1.00; Emax (rCRFR1 [3]; Table 4, 1 μM CRF antagonist alone, cAMP production, oCRF = 1.00, read-out: HEK-rCRFR1 cells rel. IA (relative intrinsic activity)): 100%; HEK-rCRFR1 cells rel. pot. (relative potency) (rCRFR1 [3]; Table 4, 1 μM antagonist, cAMP production stimulated by 1 nM oCRF, oCRF alone = 1.00): 1.00; EC50 (mCRFR2β [4]): 11.8 ± 1.96 nM
2 | astressin, cyclo(30-33)[DPhe^12, Nle^21,38, Glu^30, Lys^33]h/rCRF(12-41) (peptide) | 4 nM | 1 |  |  |  |  | 
3 | sauvagine (Svg) (peptide) | 4.5 nM | 0.109 |  |  |  |  | 
4 | [dF]ELLRKMIEIEKQEKEKQQAANNRLLLDTI (not fully specified (C-terminus), also called compound 12) [[DPhe^11]Svg(11-40)] | 3.5 nM | 47.6 | 0.07 relative, oCRF = 1.00 | 0.07 relative, oCRF = 1.00 | 0.75 relative, oCRF = 1.00 | 237 nM | relative in vitro potency, inhibition of oCRF-stimulated cAMP production, HEK-rCRFR1 cells [7]: 0.75 relative, oCRF = 1.00; Kd [9]: 237 nM
5 | LELLRKMIEIEKQEKEKQQAANNRLLLDTI (not fully specified (C-terminus), also called compound 14) [Svg(11-40)] | 15.4 nM | 37.9 | 0.14 relative, oCRF = 1.00 | 0.14 relative, oCRF = 1.00 | 0.76 relative, oCRF = 1.00 | 831 nM | relative in vitro potency, inhibition of oCRF-stimulated cAMP production, HEK-rCRFR1 cells [7]: 0.76 relative, oCRF = 1.00; Kd [9]: 831 nM
6 | [dL]ELLRKMIEIEKQEKEKQQAANNRLLLDTI (not fully specified (C-terminus), also called compound 13) [[DLeu^11]Svg(11-40)] | 20.9 nM | 56.1 | 0.22 relative, oCRF = 1.00 | 0.22 relative, oCRF = 1.00 | 0.92 relative, oCRF = 1.00 | 1670 nM | relative in vitro potency, inhibition of oCRF-stimulated cAMP production, HEK-rCRFR1 cells [7]: 0.92 relative, oCRF = 1.00; Kd [9]: 1670 nM
7 | [dF]HLLRKMIEIEKQEKEKQQAANNRLLLDTI (not fully specified (C-terminus)) [antisauvagine-30, [DPhe^11, His^12]Svg(11-40)] |  | 77 | 0.04 relative, oCRF = 1.00 |  |  |  | 
8 | [dF]HLLRTILELARTQSQRERAEQNRIIFDSV (ends and bridges not checked) [[DPhe^11]rUcn(11-40)] |  |  | 0.07 relative, oCRF = 1.00 |  |  |  | 
9 | [dF]ELLRTILELARTQSQRERAEQNRIIFDSV (ends and bridges not checked) [[DPhe^11, Glu^12]rUcn(11-40)] |  |  | 0.22 relative, oCRF = 1.00 |  |  |  | 
10 | [dF]HLLRTILELARTQSQREEAEKNRIIFDSV (lactam 19-22; ends not checked) [cyclo(29-32)[DPhe^11, Glu^29, Lys^32]rUcn(11-40)] |  |  | 0.1 relative, oCRF = 1.00 |  |  |  | 
11 | [dL]ELLRTILELARTQSQRERAEQNRIIFDSV (ends and bridges not checked) [[DLeu^11, Glu^12]rUcn(11-40)] |  |  | 0.23 relative, oCRF = 1.00 |  |  |  | 
12 | {ATB}-HLLRKMIEIEKQEKEKQQAANNRLLLDTI (ends and bridges not checked, also called compound 17) [ATB-[His^12]Svg(12-40)] |  | 32.3 |  | 0.15 relative, oCRF = 1.00 | 0.54 relative, oCRF = 1.00 | 142 nM | 
13 | YLLRKMIEIEKQEKEKQQAANNRLLLDTI (ends and bridges not checked, also called compound 20) [[Tyr^12]Svg(12-40)] |  | 1.63 |  | 0.06 relative, oCRF = 1.00 | 0.9 relative, oCRF = 1.00 | 996 nM | 
14 | [dF]HLLREVLEMTKADQLAQQAHSNRKLLDIA (ends and bridges not checked) [[DPhe^12]oCRF(12-41)] |  |  | 0.05 relative, oCRF = 1.00 |  |  |  | 
